# Laboratory results from the Human Domainome abundance scans (Beltran et al. 2025).
# ± gives the uncertainty stated by the source.
# Experiment: abundance fitness (aPCA) (normalised: wild type 0, dead -1); higher = more abundant; growth selection in yeast, the domain comes from the species named
# Details: Bacillus caldolyticus
row,Substance,abundance fitness
1,"Cold shock protein CspB G22P, P41016",0.032 ± 0.047

# Same assay, conditions: Homo sapiens
row,Substance,abundance fitness
1,"Scaffold attachment factor B1 E59T, Q15424",-0.082 ± 0.053
2,"Scaffold attachment factor B1 N71E, Q15424",-0.36 ± 0.072
3,"Scaffold attachment factor B1 S50V, Q15424",-0.236 ± 0.068
4,"Scaffold attachment factor B1 G27K, Q15424",-0.204 ± 0.1
5,"Scaffold attachment factor B1 G70H, Q15424",-0.467 ± 0.083
6,"Scaffold attachment factor B1 S51P, Q15424",-0.879 ± 0.11
7,"Scaffold attachment factor B1 R46N, Q15424",-0.819 ± 0.15
8,"Scaffold attachment factor B1 E66V, Q15424",-0.244 ± 0.05
9,"Scaffold attachment factor B1 R30G, Q15424",-0.31 ± 0.061
10,"Scaffold attachment factor B1 N53F, Q15424",-0.354 ± 0.048
11,"Scaffold attachment factor B1 A41L, Q15424",-0.12 ± 0.055
12,"Scaffold attachment factor B1 N71K, Q15424",-0.253 ± 0.073
13,"Scaffold attachment factor B1 E74F, Q15424",-0.175 ± 0.069
14,"Scaffold attachment factor B1 S51W, Q15424",-0.55 ± 0.088
15,"Scaffold attachment factor B1 D33F, Q15424",-0.715 ± 0.063
16,"Scaffold attachment factor B1 K62P, Q15424",-0.728 ± 0.065
17,"Scaffold attachment factor B1 E80M, Q15424",-0.361 ± 0.19
18,"Scaffold attachment factor B1 E59S, Q15424",-0.111 ± 0.051
19,"Scaffold attachment factor B1 N47A, Q15424",-0.236 ± 0.056
20,"Scaffold attachment factor B1 E66N, Q15424",-0.202 ± 0.075
21,"Scaffold attachment factor B1 K54L, Q15424",-0.28 ± 0.048
22,"Scaffold attachment factor B1 L57K, Q15424",-0.598 ± 0.088

row,Substance,abundance fitness
1,"Scaffold attachment factor B1 T28N, Q15424",-0.196 ± 0.099
2,"Scaffold attachment factor B1 S55Q, Q15424",-0.133 ± 0.059
3,"Scaffold attachment factor B1 L57G, Q15424",-0.759 ± 0.069
4,"Scaffold attachment factor B1 E74S, Q15424",-0.053 ± 0.053
5,"Scaffold attachment factor B1 V36G, Q15424",-0.348 ± 0.057
6,"Scaffold attachment factor B1 S32W, Q15424",-0.419 ± 0.053
7,"Scaffold attachment factor B1 R60G, Q15424",-0.464 ± 0.075
8,"Scaffold attachment factor B1 R29D, Q15424",-0.37 ± 0.091
9,"Scaffold attachment factor B1 D73T, Q15424",-0.231 ± 0.056
10,"Scaffold attachment factor B1 E68S, Q15424",-0.236 ± 0.052
11,"Scaffold attachment factor B1 T28Q, Q15424",-0.485 ± 0.073
12,"Scaffold attachment factor B1 E59M, Q15424",-0.131 ± 0.064
13,"Scaffold attachment factor B1 E68I, Q15424",-0.469 ± 0.05
14,"Scaffold attachment factor B1 D49H, Q15424",-0.396 ± 0.097
15,"Scaffold attachment factor B1 I37Y, Q15424",-0.231 ± 0.059
16,"Scaffold attachment factor B1 D49R, Q15424",-0.344 ± 0.052
17,"Scaffold attachment factor B1 T78K, Q15424",-0.131 ± 0.076
18,"Scaffold attachment factor B1 N71T, Q15424",-0.267 ± 0.092
19,"Scaffold attachment factor B1 D73V, Q15424",-0.23 ± 0.053
20,"Scaffold attachment factor B1 A64N, Q15424",-0.551 ± 0.15
21,"Scaffold attachment factor B1 T28D, Q15424",-0.257 ± 0.1
